In US20080058636A1, “METHODS OF MYOCARDIAL IMAGING” (Epix Pharmaceuticals, Inc., priority 2005, published 2008) one finds Dried Human Collagen Binding and % Collagen Binding data, which are given here for 31 molecules.

Bridge positions count the residues as written; N and C are the ends. Square brackets hold non-standard residues; d marks the D form. Ends that are not written are not given here.

For experiment [1], the target named is human collagen type I (acid soluble, extracted from placenta, Sigma C7774) (human) (UniProt P02452). In words: dried collagen assay.
Experiment [2] addresses rat collagen (acid soluble, type I, rat tail, Upstate 08-115) (rat) (UniProt P02454). Kind of experiment: dried collagen assay.

Sequence of human collagen type I (acid soluble, extracted from placenta, Sigma C7774) (human) (P02452 162-1218 limits assumed, chain 1 of 2): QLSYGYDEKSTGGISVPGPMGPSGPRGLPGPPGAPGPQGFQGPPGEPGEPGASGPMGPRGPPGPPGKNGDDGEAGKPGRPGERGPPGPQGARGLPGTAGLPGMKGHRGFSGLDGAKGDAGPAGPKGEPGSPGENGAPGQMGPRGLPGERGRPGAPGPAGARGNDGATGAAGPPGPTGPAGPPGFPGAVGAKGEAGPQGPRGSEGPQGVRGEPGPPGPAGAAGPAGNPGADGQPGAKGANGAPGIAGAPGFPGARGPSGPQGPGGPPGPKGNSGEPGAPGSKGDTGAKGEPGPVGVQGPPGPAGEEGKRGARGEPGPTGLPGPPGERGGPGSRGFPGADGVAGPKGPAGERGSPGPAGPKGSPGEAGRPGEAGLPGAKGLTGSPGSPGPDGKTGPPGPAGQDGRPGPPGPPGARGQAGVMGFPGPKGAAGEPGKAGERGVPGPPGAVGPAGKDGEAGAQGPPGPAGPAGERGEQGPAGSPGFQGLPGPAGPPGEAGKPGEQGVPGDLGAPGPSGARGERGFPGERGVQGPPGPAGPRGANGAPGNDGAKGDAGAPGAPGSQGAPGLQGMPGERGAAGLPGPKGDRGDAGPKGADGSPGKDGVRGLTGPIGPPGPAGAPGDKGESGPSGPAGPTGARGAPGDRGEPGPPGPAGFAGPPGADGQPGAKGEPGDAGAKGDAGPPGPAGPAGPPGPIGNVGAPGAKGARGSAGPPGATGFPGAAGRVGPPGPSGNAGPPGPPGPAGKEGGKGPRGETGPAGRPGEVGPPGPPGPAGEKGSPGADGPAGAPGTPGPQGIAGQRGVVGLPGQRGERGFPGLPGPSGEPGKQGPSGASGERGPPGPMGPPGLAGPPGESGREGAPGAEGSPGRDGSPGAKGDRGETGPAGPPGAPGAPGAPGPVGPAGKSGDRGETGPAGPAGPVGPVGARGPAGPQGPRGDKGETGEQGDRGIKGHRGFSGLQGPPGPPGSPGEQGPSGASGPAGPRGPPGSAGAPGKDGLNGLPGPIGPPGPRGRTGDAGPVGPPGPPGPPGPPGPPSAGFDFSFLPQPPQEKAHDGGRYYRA
Sequence of human collagen type I (acid soluble, extracted from placenta, Sigma C7774) (human) (P08123 80-1119 limits assumed, chain 2 of 2, further chain): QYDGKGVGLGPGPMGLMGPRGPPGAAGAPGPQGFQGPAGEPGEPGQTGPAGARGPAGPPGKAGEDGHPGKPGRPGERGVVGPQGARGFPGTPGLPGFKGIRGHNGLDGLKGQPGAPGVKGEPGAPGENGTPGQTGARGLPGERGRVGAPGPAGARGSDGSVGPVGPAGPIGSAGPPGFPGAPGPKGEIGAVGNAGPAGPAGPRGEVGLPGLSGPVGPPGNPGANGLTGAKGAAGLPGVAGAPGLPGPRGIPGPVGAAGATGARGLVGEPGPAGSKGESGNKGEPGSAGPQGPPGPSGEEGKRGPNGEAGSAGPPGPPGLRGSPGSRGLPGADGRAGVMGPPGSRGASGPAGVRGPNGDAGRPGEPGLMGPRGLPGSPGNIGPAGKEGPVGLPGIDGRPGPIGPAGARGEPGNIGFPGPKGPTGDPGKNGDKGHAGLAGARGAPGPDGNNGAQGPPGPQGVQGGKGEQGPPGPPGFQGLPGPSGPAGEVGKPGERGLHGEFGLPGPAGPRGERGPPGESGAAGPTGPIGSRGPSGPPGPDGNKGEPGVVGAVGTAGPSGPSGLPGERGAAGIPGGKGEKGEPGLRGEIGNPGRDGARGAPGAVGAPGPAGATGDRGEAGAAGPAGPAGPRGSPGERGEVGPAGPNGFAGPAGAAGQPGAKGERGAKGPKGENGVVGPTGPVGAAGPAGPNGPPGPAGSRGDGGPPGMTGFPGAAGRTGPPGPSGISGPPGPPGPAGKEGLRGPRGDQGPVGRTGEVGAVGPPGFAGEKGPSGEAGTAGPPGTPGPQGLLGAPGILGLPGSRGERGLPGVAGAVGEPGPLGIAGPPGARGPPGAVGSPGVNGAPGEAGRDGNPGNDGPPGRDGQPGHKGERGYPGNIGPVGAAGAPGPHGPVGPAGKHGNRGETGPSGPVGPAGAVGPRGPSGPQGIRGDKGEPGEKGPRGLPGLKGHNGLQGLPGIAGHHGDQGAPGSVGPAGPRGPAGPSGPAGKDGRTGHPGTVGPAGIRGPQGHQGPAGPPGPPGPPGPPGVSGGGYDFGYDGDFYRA
Sequence of rat collagen (acid soluble, type I, rat tail, Upstate 08-115) (rat) (P02454 152-1207, chain 1 of 2): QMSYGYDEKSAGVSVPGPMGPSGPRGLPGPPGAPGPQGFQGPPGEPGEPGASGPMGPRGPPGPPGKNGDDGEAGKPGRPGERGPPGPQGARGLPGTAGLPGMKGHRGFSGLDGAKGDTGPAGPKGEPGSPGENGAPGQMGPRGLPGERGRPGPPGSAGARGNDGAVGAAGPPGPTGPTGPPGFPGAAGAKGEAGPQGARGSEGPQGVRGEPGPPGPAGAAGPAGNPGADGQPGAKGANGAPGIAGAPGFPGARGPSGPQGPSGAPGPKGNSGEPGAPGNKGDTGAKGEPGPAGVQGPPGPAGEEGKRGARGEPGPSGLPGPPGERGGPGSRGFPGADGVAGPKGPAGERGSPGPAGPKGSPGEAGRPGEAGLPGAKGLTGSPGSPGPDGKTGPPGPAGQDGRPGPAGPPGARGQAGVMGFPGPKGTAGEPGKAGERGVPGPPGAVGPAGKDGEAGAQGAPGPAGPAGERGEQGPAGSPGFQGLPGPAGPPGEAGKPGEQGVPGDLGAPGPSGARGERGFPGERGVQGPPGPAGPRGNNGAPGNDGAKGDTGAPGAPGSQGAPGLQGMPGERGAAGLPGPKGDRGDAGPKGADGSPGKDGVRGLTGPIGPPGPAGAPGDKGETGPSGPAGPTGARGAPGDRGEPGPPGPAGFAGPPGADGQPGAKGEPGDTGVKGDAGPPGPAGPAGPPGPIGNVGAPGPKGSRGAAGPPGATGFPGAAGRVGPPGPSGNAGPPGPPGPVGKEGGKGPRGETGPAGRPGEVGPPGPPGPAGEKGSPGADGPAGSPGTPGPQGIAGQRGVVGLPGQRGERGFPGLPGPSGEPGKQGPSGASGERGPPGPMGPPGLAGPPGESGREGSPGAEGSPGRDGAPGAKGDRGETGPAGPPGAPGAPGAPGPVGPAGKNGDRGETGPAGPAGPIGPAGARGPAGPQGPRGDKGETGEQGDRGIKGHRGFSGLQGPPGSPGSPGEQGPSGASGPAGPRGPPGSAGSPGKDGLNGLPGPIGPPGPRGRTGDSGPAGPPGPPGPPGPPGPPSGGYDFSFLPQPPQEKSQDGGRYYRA
Sequence of rat collagen (acid soluble, type I, rat tail, Upstate 08-115) (rat) (P02466 86-1125, chain 2 of 2, further chain): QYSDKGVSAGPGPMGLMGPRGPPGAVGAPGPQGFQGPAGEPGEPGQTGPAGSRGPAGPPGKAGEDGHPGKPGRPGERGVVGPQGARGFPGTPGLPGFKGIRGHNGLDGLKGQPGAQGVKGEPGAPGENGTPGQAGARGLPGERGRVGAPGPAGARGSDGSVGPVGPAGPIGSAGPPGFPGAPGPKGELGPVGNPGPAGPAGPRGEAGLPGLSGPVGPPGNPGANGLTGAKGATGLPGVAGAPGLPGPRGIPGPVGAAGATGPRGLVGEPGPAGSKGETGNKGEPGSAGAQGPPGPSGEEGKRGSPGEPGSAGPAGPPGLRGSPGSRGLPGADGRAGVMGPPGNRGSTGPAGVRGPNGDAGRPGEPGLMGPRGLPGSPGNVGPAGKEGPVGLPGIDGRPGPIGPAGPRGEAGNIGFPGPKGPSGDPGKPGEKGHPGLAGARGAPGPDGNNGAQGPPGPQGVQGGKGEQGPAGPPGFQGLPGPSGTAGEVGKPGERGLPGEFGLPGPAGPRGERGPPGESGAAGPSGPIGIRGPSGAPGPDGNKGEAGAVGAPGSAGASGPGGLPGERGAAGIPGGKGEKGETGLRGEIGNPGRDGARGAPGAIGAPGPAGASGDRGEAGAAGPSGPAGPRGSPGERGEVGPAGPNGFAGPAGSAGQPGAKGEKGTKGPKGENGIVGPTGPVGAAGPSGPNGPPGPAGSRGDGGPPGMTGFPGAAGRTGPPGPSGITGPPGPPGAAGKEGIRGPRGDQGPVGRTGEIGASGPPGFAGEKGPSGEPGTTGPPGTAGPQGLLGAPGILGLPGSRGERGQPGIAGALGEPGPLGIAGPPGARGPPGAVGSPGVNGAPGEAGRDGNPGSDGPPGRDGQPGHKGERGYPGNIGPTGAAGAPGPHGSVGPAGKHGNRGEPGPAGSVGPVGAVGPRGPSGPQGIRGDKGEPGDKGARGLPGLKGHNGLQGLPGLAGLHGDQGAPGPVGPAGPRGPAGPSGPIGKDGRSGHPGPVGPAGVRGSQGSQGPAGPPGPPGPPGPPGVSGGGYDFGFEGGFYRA

GWTCSQPGANVWNCTMQ (disulfide 4-14; not fully specified (C-terminus)) [SEQ ID NO: 85] yielded a Dried Human Collagen Binding in experiment [1] of 3%.

B1: SEQ ID NO: 176 (peptide)
chain: GQWTCSGDEYTWHC[dN]YE
modifications: disulfide 5-14 (inferred); not fully specified (C-terminus); printed as Q W T C S G D E Y T W H C n Y E
In the case of B1, the % Collagen Binding in experiment [1] and in experiment [2] was 2% each time.

As to GQWTCSGD[dE]YTWHCNYE (disulfide 5-14 (inferred)) [SEQ ID NO: 170], the % Collagen Binding in experiment [1] came out at 49%; in experiment [2] it was 35%. Regarding GQWTCSADEYTWHCNYE (disulfide 5-14; not fully specified) [SEQ ID NO: 142], the % Collagen Binding in experiment [2] came to 6%. Regarding YHACYQAGCWAW (disulfide 4-9; not fully specified) [SEQ ID NO: 137], in experiment [2], the % Collagen Binding stood at 7%.

B2: SEQ ID NO: 177 (peptide)
chain: GQWTCSGDEYTWHCN[dY]E
modifications: disulfide 5-14 (inferred); not fully specified (C-terminus); printed as Q W T C S G D E Y T W H C N y E
With B2, the % Collagen Binding worked out at 30% in experiment [1] and 27% in experiment [2]. On to DWTCSYDEYTWHCNYE [SEQ ID NO: 182], for which the values for the % Collagen Binding in experiment [1] and in experiment [2] were 89% and 86%, respectively.

B3: SEQ ID NO: 175 (peptide)
chain: GQWTCSGDEYTWH[dC]NYE
modifications: disulfide 5-14 (inferred); not fully specified (C-terminus); printed as Q W T C S G D E Y T W H c N Y E
For the molecule B3, the % Collagen Binding in experiment [1] and in experiment [2] was 2% each time. GWACNTTSKGDWECTNL (disulfide 4-14; not fully specified (C-terminus)) [SEQ ID NO: 83] registered a Dried Human Collagen Binding in experiment [1] of 3%.

B4: SEQ ID NO: 171 (peptide)
chain: GQWTCSGDE[dY]TWHCNYE
modifications: disulfide 5-14 (inferred); not fully specified (C-terminus); printed as Q W T C S G D E y T W H C N Y E
Consider B4, for which the % Collagen Binding in experiment [1] was 13%; in experiment [2], 6%.

B5: SEQ ID NO: 172 (peptide)
chain: GQWTCSGDEY[dT]WHCNYE
modifications: disulfide 5-14 (inferred); not fully specified (C-terminus); printed as Q W T C S G D E Y t W H C N Y E
Regarding B5, the figures for the % Collagen Binding in experiment [1] and in experiment [2] were 9% and 8%, respectively.

B6: SEQ ID NO: 173 (peptide)
chain: GQWTCSGDEYT[dW]HCNYE
modifications: disulfide 5-14 (inferred); not fully specified (C-terminus); printed as Q W T C S G D E Y T w H C N Y E
On to B6, for which the % Collagen Binding turned out to be 5% in experiment [1] and 4% in experiment [2]. For the molecule GQW[dT]CSGDEYTWHCNYE (disulfide 5-14 (inferred)) [SEQ ID NO: 166], the % Collagen Binding is 2% in experiment [1] and 3% in experiment [2].

Consider GQ[dW]TCSGDEYTWHCNYE (disulfide 5-14 (inferred)) [SEQ ID NO: 165], for which the % Collagen Binding in experiment [1] was 2%; in experiment [2], 4%.

On to GQWTCSGDEYSWHCNY[dE] (disulfide 5-14 (inferred)) [SEQ ID NO: 125], for which the results for the % Collagen Binding in experiment [1] and in experiment [2] were 85% and 86%, respectively.

GQWTCSGDEY[dA]WHCNA[dE] (disulfide 5-14 (inferred)) [SEQ ID NO: 124]: the % Collagen Binding came out at 24% in experiment [1] and 17% in experiment [2]. In experiment [1], TWMCVDPPLWRCWVQ (disulfide 4-12; also: C-terminus probably amidated (Rink amide resin)) [SEQ ID NO: 4] returned a Dried Human Collagen Binding of 45%. In the case of DWTCSSDEYTWHCNYE [SEQ ID NO: 180], the % Collagen Binding in experiment [1] was 81%; in experiment [2], 72%. As to GQWTCSGDEYAWHCNY[dE] (disulfide 5-14 (inferred)) [SEQ ID NO: 126], the % Collagen Binding was determined as 68% in experiment [1] and 73% in experiment [2]. The like results for GQWTC[dS]GDEYTWHCNYE (disulfide 5-14 (inferred)) [SEQ ID NO: 168] were, in that order, 3% and 2%. The like results for PWTCSGDEYAWHCNYE [SEQ ID NO: 121] were, in that order, 57% and 72%. As for HWSCDLAMDNEWFCSTK (disulfide 4-14; not fully specified (C-terminus)) [SEQ ID NO: 84], the Dried Human Collagen Binding in experiment [1] stood at 3%. Take DWTCSLDEYTWHCNYE [SEQ ID NO: 183]: the % Collagen Binding in experiment [1] was determined as 73%; in experiment [2] it was 63%. The like results for GQWT[dC]SGDEYTWHCNYE (disulfide 5-14 (inferred)) [SEQ ID NO: 167] were, in that order, 4% and 0%.

B7: SEQ ID NO: 178 (peptide)
chain: GQWTCSGDEYTWHCNY[dE]
modifications: disulfide 5-14 (inferred); not fully specified (C-terminus); printed as Q W T C S G D E Y T W H C N Y e
In the case of B7, the % Collagen Binding is 90% in experiment [1] and 87% in experiment [2].

B8: SEQ ID NO: 174 (peptide)
chain: GQWTCSGDEYTW[dH]CNYE
modifications: disulfide 5-14 (inferred); not fully specified (C-terminus); printed as Q W T C S G D E Y T W h C N Y E
With B8, the figures for the % Collagen Binding in experiment [1] and in experiment [2] were 5% and 0%, respectively. Regarding DWTCSRDEYTWHCNYE [SEQ ID NO: 181], the % Collagen Binding was determined as 87% in experiment [1] and 86% in experiment [2]. The like results for GQWTCSG[dD]EYTWHCNYE (disulfide 5-14 (inferred)) [SEQ ID NO: 169] were, in that order, 11% and 4%.

In the case of DWTCSADEYTWHCNYE [SEQ ID NO: 179], the figures for the % Collagen Binding in experiment [1] and in experiment [2] were 81% and 75%, respectively. DWTCSGDEYAWHCNYE [SEQ ID NO: 120]: the % Collagen Binding stood at 38% in experiment [1] and 28% in experiment [2].

As to G[dQ]WTCSGDEYTWHCNYE (disulfide 5-14 (inferred)) [SEQ ID NO: 164], the % Collagen Binding in experiment [1] amounted to 46%; in experiment [2], 31%.
